Reference: paper PMC7164637

Target: 2019-nCoV spike (S) glycoprotein, prefusion-stabilized ectodomain (residues 1-1208, two stabilizing proline mutations) (2019-nCoV)
Test: cryo-EM structure

Substance: 2019-nCoV spike (S) glycoprotein, prefusion-stabilized ectodomain (residues 1-1208, two stabilizing proline mutations) (domain or fragment)
- stoichiometry N: 3
